Series [1] has as its target T1, MBP-Rep78 (Adeno-associated virus type 2 (AAV-2)?, UniProt Q89268 1-621).
T1 sequence: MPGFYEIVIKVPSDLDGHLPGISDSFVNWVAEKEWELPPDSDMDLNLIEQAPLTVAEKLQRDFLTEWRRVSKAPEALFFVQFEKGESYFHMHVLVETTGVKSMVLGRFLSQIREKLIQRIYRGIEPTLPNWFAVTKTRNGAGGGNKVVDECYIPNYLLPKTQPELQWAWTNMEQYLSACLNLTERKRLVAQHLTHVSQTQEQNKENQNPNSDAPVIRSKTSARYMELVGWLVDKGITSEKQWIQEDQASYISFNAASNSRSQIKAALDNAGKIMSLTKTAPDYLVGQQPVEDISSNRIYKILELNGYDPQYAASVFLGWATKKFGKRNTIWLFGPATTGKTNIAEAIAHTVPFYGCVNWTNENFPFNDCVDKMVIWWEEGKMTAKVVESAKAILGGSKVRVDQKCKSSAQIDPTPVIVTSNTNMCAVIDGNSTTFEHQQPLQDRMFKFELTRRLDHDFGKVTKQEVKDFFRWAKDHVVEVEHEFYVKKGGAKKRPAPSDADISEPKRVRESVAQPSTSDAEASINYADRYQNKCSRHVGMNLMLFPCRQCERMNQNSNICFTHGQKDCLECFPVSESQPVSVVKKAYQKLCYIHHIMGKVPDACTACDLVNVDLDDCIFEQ
The experiment in a line: EMSA; among the highest affinities; 10 mM Mg2+; 25 mM HEPES-KOH pH 7.8, 10 mM MgCl2, 40 mM NaCl, 1 mM DTT, 2% glycerol, 12.5 ug/ml BSA, 0.01% Nonidet P40, 5 ug/ml salmon sperm DNA; 0.015 pmol probe; 20 min at 20 C. Conditions: protein: recombinant; MBP fusion; label: 32P 5' end label; blunt. Background: In EMSA bound probe runs differently from free probe, usually more slowly.

For series [2], the target named is T1, MBP-Rep78. The experiment in a line: EMSA; 10 mM Mg2+; 25 mM HEPES-KOH pH 7.8, 10 mM MgCl2, 40 mM NaCl, 1 mM DTT, 2% glycerol, 12.5 ug/ml BSA, 0.01% Nonidet P40, 5 ug/ml salmon sperm DNA; 0.015 pmol probe; 20 min at 20 C. The note with it: protein: recombinant; MBP fusion; label: 32P 5' end label; blunt.

B1: AAV-ITR (A-stem, nt 85-133) (dsDNA)
DNA 1: GCCTCAGTGAGCGAGCGAGCGCGCAGAGAGGGAGTGGCCAACTCCATCA
DNA 2: TGATGGAGTTGGCCACTCCCTCTCTGCGCGCTCGCTCGCTCACTGAGGC
On to B1, for which, in the series with MBP-Rep78 [1], the binding result was “binds”.

B2: AAV p5 (nt 245-292) (dsDNA)
DNA 1: TCACGCTGGGTATTTAAGCCCGAGTGAGCACGCAGGGTCTCCATTTTG
DNA 2: CAAAATGGAGACCCTGCGTGCTCACTCGGGCTTAAATACCCAGCGTGA
As for B2, the binding result with MBP-Rep78 [1] is “binds”.

B3: Chr. 3p24.3 (AAVS3) (dsDNA)
DNA 1: GTGAGGAGTGAGTGAGTGAGCGAGCGCACATTCATTCCCCTTGGGAAGC
DNA 2: GCTTCCCAAGGGGAATGAATGTGCGCTCGCTCACTCACTCACTCCTCAC
Regarding B3, the binding signal with MBP-Rep78 [2] is 2 fold of AAVS1 affinity.

(Values after PMC2900306, “Integration Preferences of Wildtype AAV-2 for Consensus Rep-Binding Sites at Numerous Loci in the Human Genome”.)
